Results taken from patent US8114974B2, “Engineered microorganisms with enhanced fermentation activity” (Verdezyne, Inc., priority 2009, dated 2012).
Values joined by “and” are separate entries in the source; they are usually repeats but may differ in a detail not shown here. Equal values may be shown once.

What was measured:
xylose isomerase [1] = assay: In vitro xylose isomerase activity assay (sorbitol dehydrogenase/NADH coupled, A340; Km, specific activity, Ki for xylitol); assay type: biochemical, Saccharomyces cerevisiae
Description: About 20 μg of soluble whole cell extract was incubated in the presence of 100 mM Tris, pH 7.5, 10 mM MgCl2, 0.15 mM NADH (Sigma, St. Louis, Mo.), and about 2 U sorbitol dehydrogenase (Roche) at about 30° C. […] A Beckman DU-800 was utilized with an Enzyme Mechanism software package (Beckman Coulter, Inc.), and the change in the A340 was monitored for 2-3 minutes.
Approximately 20 μg of soluble whole cell extract from each transformed cell line, prepared using Y-PER plus reagent as described above, was incubated in a solution containing about 100 mM Tris, pH 7.5, 10 mM MgCl ? 2, 0.15 mM NADH (Sigma, St. Louis, Mo.), and 2 U Sorbitol Dehydrogenase (SDH) (Roche, Indianapolis, Ind.) at about 30° C. […] A Beckman DU-800 spectrophotometer was utilized with an Enzyme Mechanism software package (Beckman Coulter, Inc, Brea, Calif.), and the change in the A340 was monitored for 2-3 minutes.
Approximately 20 μg of soluble whole cell extract from each transformed cell line was prepared using Y-PER plus reagent as described above was incubated in a solution containing about 100 mM Tris, pH 7.5, 10 mM MgCl2, 0.15 mM NADH (Sigma, St. Louis, Mo.), and 2 U sorbitol dehydrogenase (SDH) (Roche, Indianapolis, Ind.) at about 30° C. […] A Beckman DU-800 spectrophotometer was utilized with an Enzyme Mechanism software package (Beckman Coulter, Inc, Brea, Calif.), and the change in the A340 was monitored for 2-3 minutes.
Approximately 20 μg of soluble whole cell extract from each transformed cell line was prepared using Y-PER plus reagent as described above was incubated in a solution containing about 100 mM Tris, pH 7.5, 10 mM MgCl ? .2, 0.15 mM NADH (Sigma, St. Louis, Mo.), and 2 U Sorbitol Dehydrogenase (SDH) (Roche, Indianapolis, Ind.) at about 30° C. […] A Beckman DU-800 spectrophotometer was utilized with an Enzyme Mechanism software package (Beckman Coulter, Inc, Brea, Calif.), and the change in the A340 was monitored for 2-3 minutes.
The Clostridiales enzyme was further characterized at 1974 μg to confirm the presence of activity.

xylose isomerase [2] = assay: Heterologous xylose isomerase expression in yeast (active yes/no); assay type: cell-based, Saccharomyces cerevisiae; conditions: xylose isomerase of the donor organism expressed in engineered yeast (S. cerevisiae)
C5 strain = assay: In vivo evaluation of xylose isomerase constructs in C5 strain, fermentation on xylose; assay type: cell-based, Saccharomyces cerevisiae; conditions: final sample at 372 hours
Source text: The engineered strain was designed to include the following genetic modifications: the native Pho13 gene (alkaline phosphatase specific for p-nitrophenyl phosphate) was disrupted by inserting a construct containing the native TLK1 gene (Transketolase-1); the native aldose reductase gene (Gre3) was disrupted by inserting a construct containing the native high-affinity glucose transporter-7 gene (HXT7); the native glucose-repressible alcohol dehydrogenase II gene (adh2) was disrupted by inserting a construct containing the native xylulokinase gene (XYLK); and the native orotidine-5′ phosphate decarboxylase gene (ura3) was disrupted by inserting a construct containing the native transaldolase 1 gene (TAL1). The resulting strain had the following genotype: pho13::TKL1, gre3::HXT7, adh2::XYLK, ura3::TAL1.
The C5 strain was transformed using standard protocols with either p426GPD (as a control) or the chimeric variants XI-R, XI-Rp5, XI-Rp10, or XI-Rp15. The transformed cells were grown on SC-glucose minus uracil initially and then passaged onto SC-xylose minus uracil. Cultures of each of the above constructs were made in SC-xylose minus uracil—and grown for one week. The cultures were grown aerobically at 30° C. with 250 rpm agitation, 1 vvm sparge of process air, 21% O2. The pH was controlled at about 5.0 with 1N NaOH. […] At 24 hours elapsed fermentation time the fermentation was switched to anaerobic conditions.
Oxygen was purged with 100% N2 sparge at 1 vvm until percent O2 was below 1%. Aeration was then set at 0.25 vvm 100% N2.
The final sample also measured biomass by dry cell weight.

[3] = tested on: 2-keto-3-deoxygluconate-6-phosphate aldolase (EDA); assay: EDA activity assay with saturating amounts of E. coli EDD extract (LDH/NADH coupled); assay type: biochemical, Saccharomyces cerevisiae; conditions: for EDA activity (comparison in words): saturating E. coli EDD extract
Description: EDA genes isolated from a variety of sources were expressed in yeast and evaluated independently of EDA activity, to identify EDA activities suitable of inclusion in an engineered yeast strain. […] The activity of integrated EDAs in Thermosacc-Gold haploids, were also evaluated in this manner. The table below describes oligonucleotide primers used to isolate the various EDA genes.
EDA extracts were prepared using the following protocol. Day 1
Grow 5 ml LB-Kan preps of BF1055 (BL21/DE3 with pET26b empty vector) and BF1706 (BL21DE3 with pET26b+E. coli EDD).
Grow 50 ml LB-Kan prep of BF1055, 2% (v/v) inoculate.
Grow 50 ml prep of BF1706 using Novagen's Overnight Express (46.45 ml LB-Kan, 1 ml solution 1, 2.5 ml solution 2, 50 μl solution 3, 5 μl of 1M MnCl2, 50 μl of 0.5 M FeCl2), 2% (v/v) inoculate.
Inoculate to OD600 of 0.2.
EDD extractions (adapted from Chemyan et al, Protein Science 16:2368-2377, 2007): • 1) Pellet cells in 50 ml conical tubes, 4° C., 3,000 rpm, 10 mins, discard supernatant. • 2) Resuspend in 2 ml degassed PDGH buffer (20 mM MES pH 6.5, 30 mM NaCl, 5 mM • MnCl2, 0.5 mM FeCl2, 10 mM 2-mercaptoethanol, 10 mM cysteine, sparged with nitrogen gas). Move to hungate tube. • 3) Add 0.1% Triton X-100, 10 ng/ml DNase, 10 μg/ml PMSF, 10 μg/ml TAME (Nα-(p-toluene sulfonyl)-L-arginine methyl ester), 100 μg/ml lysozyme. • 4) Sparge hungate tube with nitrogen gas, cap and seal. Incubate 2 hours at 37° C., swirl occasionally. • 5) Clarify by centrifugation in 2-ml tube, 4° C., 10 mins, 14,000 rpm. Keep supernatant. • 6) Treat with 150 mM pyruvate and 10 mM sodium cyanoborohydride (work in hood) to inactivate aldolase activity. Incubate 30 mins at room temperature. • 7) During incubation, pre-equilibrate PD-10 column from GE • a. Remove top cap, pour off storage buffer. • b. Cut off bottom tip, fit in 50 ml conical with adapter. • c. Pour 5 ml of 20 mM MES buffer, pH 6.5 (total of 5 times). Discard flow-through. • 8) Run sample through column, then add MES buffer to a total of 2.5 ml volume added. Discard flow-through. • 9) Run 3.5 ml 20 mM MES pH 6.5 buffer to elute protein. Discard column in appropriate waste receptacle. • 10) Perform Bradford assay (1:10 or 1:20 dilution). EDA extractions: • 1) Spin down in 50 ml conicals, 4° C., 3,400 rpm, 5 mins. Wash 2× with 25 ml water. • 2) Resuspend in 1 ml lysis buffer (50 mM Tris-HCl, pH 7, 10 mM MgCl2, 1× protease inhibitor. […]
Each reaction contains 50 mM Tris-HCl, pH 7, 10 mM MgCl2, 0.15 mM NADH, 15 μg LDH, saturating amounts of EDD determined empirically (usually ˜100 μg), 1-50 μg EDA (depending on level of activity), and 1 mM 6-phosphogluconate. Reactions are started by the addition of 6-phosphogluconate and monitored for 5 mins at 30° C.

[4] = soluble whole cell extract, xylose 40-500 mM, 30° C., pH 7.5

## Piromyces: xylose isomerase from Piromyces strain E2 (SEQ ID NO: 35)
Xylose isomerase [1]; G179A mutant kinetic assays, xylose 40-500 mM
  Specific Activity: 2.02 µmol/min/mg
Xylose isomerase [1]; chimeric variants, soluble whole cell extract, xylose 40-500 mM
  Specific Activity: 2.02 µmol/min/mg
Xylose isomerase [1]; [4]
  Specific Activity: 2.02 µmol/min/mg
Xylose isomerase [2]
  Active? (yes/no): Yes

B1: Clostridium phytofermentans: xylose isomerase of this donor organism (protein)
chain: MKNYFPNVPEVKYEGPNSTNPFAFKYYDANKVVAGKTMKEHCRFALSWWHTLCAGGADPFGVTTMDRTYGNITDPMELAKAKVDAGFELMTKLGIEFFCFHDADIAPEGDTFEESKKNLFEIVDYIKEKMDQTGIKLLWGTANNFSHPRFMH
modifications: Clostridium phytofermentans
notes: xylose isomerase of this donor organism
Xylose isomerase [2]
  Active? (yes/no): Yes

B2: Bacillus subtilis: xylose isomerase of this donor organism (protein, UniProt P0CI80 1-445, looked up)
Xylose isomerase: MAQSHSSSINYFGSANKVVYEGKDSTNPLAFKYYNPQEVIGGKTLKEHLRFSIAYWHTFTADGTDVFGAATMQRPWDHYKGMDLAKMRVEAAFEMFEKLDAPFFAFHDRDIAPEGSTLKETNQNLDMIMGMIKDYMRNSGVKLLWNTANMFTNPRFVHGAATSCNADVFAYAAAQVKKGLETAKELGAENYVFWGGREGYETLLNTDLKFELDNLARFMHMAVDYAKEIGYTGQFLIEPKPKEPTTHQYDTDAATTIAFLKQYGLDNHFKLNLEANHATLAGHTFEHELRMARVHGLLGSVDANQGHPLLGWDTDEFPTDLYSTTLAMYEILQNGGLGSGGLNFDAKVRRSSFEPDDLIYAHIAGMDAFARGLKVAHKLIEDRVFEDVIQHRYRSFTEGIGLEIIEGRANFHTLEQYALNHKSIKNESGRQEKLKAILNQYILEV
Xylose isomerase [2]
  Active? (yes/no): No

B3: Ruminococcus flavefaciens: native xylose isomerase from Ruminococcus flavefaciens strain 17 (SEQ ID NO: 31) (protein, listed as Ruminococcus flavefaciens)
chain: MEFFSNIGKIQYQGPKSTDPLSFKYYNPEEVINGKTMREHLKFALSWWHTMGGDGTDMFGCGTTDKTWGQSDPAARAKAKVDAAFEIMDKLSIDYYCFHDRDLSPEYGSLKATNDQLDIVTDYIKEKQGDKFKCLWGTAKCFDHPRFMHGAGTSPSADVFAFSAAQIKKALESTVKLGGNGYVFWGGREGYETLLNTNMGLELDNMARLMKMAVEYGRSIGFKGDFYIEPKPKEPTKHQYDFDTATVLGFLRKYGLDKDFKMNIEANHATLAQHTFQHELRVARDNGVFGSIDANQGDVLLGWDTDQFPTNIYDTTMCMYEVIKAGGFTNGGLNFDAKARRGSFTPEDIFYSYIAGMDAFALGFRAALKLIEDGRIDKFVADRYASWNTGIGADIIAGKADFASLEKYALEKGEVTASLSSGRQEMLESIVNNVLFSL
Xylose isomerase [1]; [4]
  Specific Activity: 1.718 µmol/min/mg
Xylose isomerase [1]; total soluble crude extracts from S. cerevisiae, xylose concentrations between 40 and 500 nM (so in the source), Michaelis Mentin plots
  Specific Activity: 0.9605 µmol/min/mg
Xylose isomerase [2]
  Active? (yes/no): Yes
C5 strain
  Glucose: 0 g/L
C5 strain; listed as XI-R
  Dry Cell Wt: 2.20 g/L and 2.03 g/L
  Ethanol: 15.65 g/L and 15.5 g/L
  Xylose: 3.14 g/L and 3.85 g/L

B4: Codon-optimized EDA from P. aeruginosa: codon-optimized version of the P. aeruginosa EDA gene (protein, UniProt O68283 1-220, looked up)
2-dehydro-3-deoxy-phosphogluco …: MHNLEQKTARIDTLCREARILPVITIDREADILPMADALAAGGLTALEITLRTAHGLTAIRRLSEERPHLRIGAGTVLDPRTFAAAEKAGASFVVTPGCTDELLRFALDSEVPLLPGVASASEIMLAYRHGYRRFKLFPAEVSGGPAALKAFSGPFPDIRFCPTGGVSLNNLADYLAVPNVMCVGGTWMLPKAVVDRGDWAQVERLSREALERFAEHRRH
modifications: codon-optimized gene
[3]; first experiment
  EDA activity (comparison in words): slight improvement over the native sequence

B5: E. coli EDA: 2-keto-3-deoxygluconate-6-phosphate aldolase of Escherichia coli expressed in yeast (protein, UniProt P0A955 1-213, looked up)
KHG/KDPG aldolase: MKNWKTSAESILTTGPVVPVIVVKKLEHAVPMAKALVAGGVRVLEVTLRTECAVDAIRAIAKEVPEAIVGAGTVLNPQQLAEVTEAGAQFAISPGLTEPLLKAATEGTIPLIPGISTVSELMLGMDYGLKEFKFFPAEANGGVKALQAIAGPFSQVRFCPTGGISPANYRDYLALKSVLCIGGSWLVPADALEAGDYDRITKLAREAVEGAKL
[3]; 100 μg of EDD and 25 μg of EDA cell lysates (5 μg of E. coli EDA), linear range
  EDA activity, repeated experiment (FIG. 24): most active of those EDA's tested
[3]; first experiment
  EDA activity (comparison in words): higher activity as compared to the other EDA activities evaluated herein
[3]; first experiment, E. coli EDA slope outside linear range, underestimated
  EDA activity relative to the EDA from P. aeruginosa: approximately 16 fold
